Reference: the supplement of paper PMC12783771
± gives the standard deviation of the averaged measurements.

B1: library; numbered along this chain (parent)
chain: MNIQIGELAKRTACPVVTIRFYEQEGLLPPPGRSRGNFRLYGEEHVERLQFIRHCRSLDMPLSDVRTLLSYRKRPDQDCGEVNMLLDEHIRQVESRIGALLELKHHLVELREACSGARPAQSCGILQGLSDCVCDTRGTTAHPSD

Experiments:
[1] = variants of: B1; test: sfGFP reporter fluorescence (15 h) (µM FITC); higher = higher leak; conditions: library round: Round 0; ligand: none
Procedure: (§1)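 Cell-free (BL21 Star DE3 extract, PANOx-SP) biosensing: 1 µL Echo-assembled reactions with linear PbrR variant templates (5 nM) and pPbrR-sfGFP reporter, with 1 µM Pb (lead chloride), 30 µM Zn (zinc acetate) or no ligand; endpoint sfGFP fluorescence after 15 h at 30 °C, calibrated as µM FITC. Round 0 library (alanine scan, site saturation, combinatorial) of PbrR from Cupriavidus metallidurans; 2 biological replicates.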

[2] = variants of: B1; test: sfGFP reporter fluorescence (15 h) (µM FITC); higher = stronger transcriptional activation; conditions: library round: Round 0
Procedure: as §1

Variant	sfGFP reporter fluorescence [1]	sfGFP reporter fluorescence ([2]; ligand: 1 µM Pb)	sfGFP reporter fluorescence ([2]; ligand: 30 µM Zn)
L28E	0.06304 ± 0.00052	0.0649 ± 0.0015	0.0656
L28D	0.06194 ± 0.00052	0.0632 ± 0.00078	0.06359 ± 0.00026
L28Q	0.0638	0.0619 ± 0.001	0.05901 ± 0.00052
L28R	0.0629 ± 0.0013	0.063 ± 0.0026	0.0588 ± 0.0029
L28M	0.0616	0.077 ± 0.0015	0.618 ± 0.023
L28K	0.06304 ± 0.00052	0.0625 ± 0.0018	0.05809 ± 0.00026
L28H	0.06249 ± 0.00026	0.0625 ± 0.0013	0.0563 ± 0.0034
L28N	0.06285 ± 0.00026	0.0592 ± 0.00078	0.0605 ± 0.0026
L28V	0.06175 ± 0.00026	0.0819 ± 0.0013	0.5124 ± 0.0026
L28S	0.0627 ± 0.0015	0.0632 ± 0.0023	0.0715
L28Y	0.0621 ± 0.00078	0.0627 ± 0.0015	0.12 ± 0.0052
L28W	0.061 ± 0.0018	0.0821 ± 0.001	0.878 ± 0.019
L28P	0.06102 ± 0.00026	0.06047 ± 0.00052	0.0619 ± 0.001
L28T	0.0647 ± 0.0013	0.0691 ± 0.0013	0.166 ± 0.031
L28F	0.0603 ± 0.00078	0.0784 ± 0.0015	0.599 ± 0.018
L28I	0.0588 ± 0.00078	0.0841 ± 0.0013	0.908 ± 0.066
E43D	0.05754 ± 0.00052	0.072 ± 0.012	0.744 ± 0.036
E43V	0.0605 ± 0.0015	0.0883 ± 0.014	1.17 ± 0.089
E43N	0.0577 ± 0.006	0.0828 ± 0.0036	1.21 ± 0.02
E43F	0.05846 ± 0.00026	0.0828 ± 0.015	0.99 ± 0.18
E43Q	0.0614 ± 0.0018	0.076 ± 0.0029	1.16 ± 0.18
E43L	0.05113 ± 0.00026	0.0713 ± 0.007	1.01 ± 0.038

Variant	sfGFP reporter fluorescence [1]	sfGFP reporter fluorescence ([2]; ligand: 1 µM Pb)	sfGFP reporter fluorescence ([2]; ligand: 30 µM Zn)
E43C	0.06066 ± 0.00026	0.0887 ± 0.0042	0.481 ± 0.018
E43T	0.06341 ± 0.00052	0.104 ± 0.0054	1.5 ± 0.14
E43I	0.05186 ± 0.00026	0.0806 ± 0.0093	1.11 ± 0.078
E43R	0.0643 ± 0.00078	0.111 ± 0.025	2.24 ± 0.12
E43H	0.0669 ± 0.00078	0.0891 ± 0.013	0.629 ± 0.0098
E43Y	0.0599 ± 0.00078	0.0924 ± 0.017	1.2 ± 0.058
E43K	0.0594	0.109 ± 0.02	2.36 ± 0.049
E43W	0.061 ± 0.0013	0.0995 ± 0.021	1.36 ± 0.2
E43P	0.05736 ± 0.00026	0.0674 ± 0.0093	0.7191 ± 0.0047
E43S	0.06102 ± 0.00026	0.0889 ± 0.015	1.41 ± 0.17
E43A	0.06304 ± 0.00052	0.0969 ± 0.0044	1.66 ± 0.077
E43G	0.0583 ± 0.0021	0.0883 ± 0.001	0.924 ± 0.066
E43M	0.0597 ± 0.0047	0.099 ± 0.0047	1.33 ± 0.083
L49A	0.0619 ± 0.001	0.0614 ± 0.0013	0.0969 ± 0.011
P29A	0.0607 ± 0.0044	0.0704 ± 0.0031	0.455 ± 0.039
H54A	0.05626 ± 0.00026	0.0552 ± 0.0029	0.07074 ± 0.00052
C55E	0.061 ± 0.0013	0.06029 ± 0.00026	0.0607 ± 0.0013
C55K	0.0608 ± 0.0015	0.061 ± 0.0018	0.0607 ± 0.00078
C55I	0.0583 ± 0.0026	0.0616	0.112 ± 0.0057
C55A	0.0647 ± 0.0013	0.126 ± 0.013	1.28 ± 0.066
C55H	0.0585 ± 0.00078	0.06139 ± 0.00026	0.0574 ± 0.00078
C55D	0.0608 ± 0.0021	0.061 ± 0.0018	0.0592 ± 0.00078
